From article doi:10.1101/2023.06.15.545202 come the findings set out here.

Assay [1] addresses PAN domain of SpG-type LecRLK-2 (amino acids 322-400), secreted His-Avi-sfGFP fusion (Salix purpurea). Briefly: SEC. On the technique in general: SEC sorts molecules by how far they enter the pores of the column.
Assay [2] addresses PAN domain of SpG-type LecRLK-2R (amino acids 322-400), secreted His-Avi-sfGFP fusion (Salix purpurea). Briefly: SEC.

For “PAN domain of SpG-type LecRLK-2 (amino acids 322-400), secreted His-Avi-sfGFP fusion (domain or fragment)”, in assay [1], the percent in higher-order complex was found to be 48.2% and the percent monomeric was 51.8%.
“PAN domain of SpG-type LecRLK-2R (amino acids 322-400), secreted His-Avi-sfGFP fusion (domain or fragment)” yielded a percent monomeric in assay [2] of 26.4%.
